Experimental data taken from article PMC10981699, “Caldomycin, a new guanidopolyamine produced by a novel agmatine homocoupling enzyme involved in homospermidine biosynthesis” (Scientific Reports, 2024).

Assays:
[1] = substrate: N=C(N)NCCCCN; assay: homospermidine formation by HPLC, coupled with TtSpeBap; type: biochemical, Thermus thermophilus; conditions: 50 mM Tris-HCl pH 8.5, 1 mM NAD+, 10 µM MnCl2, 65 °C, TtSpeBap as coupling enzyme, agmatine is both donor and acceptor
[2] = substrate: N=C(N)NCCCCNCCCCNC(=N)N; assay: urea release, Quantichrome urea assay; type: biochemical, Thermus thermophilus; conditions: assay as in ref. 26
Excerpt: urea release, Quantichrome urea assay on TtSpeBap (aminopropylagmatine ureohydrolase)

Protein | Km [1] | Km [2] | Vmax [2] | kcat [2] | kcat/Km [2]
CdmS (caldomycin synthase) (Thermus thermophilus HB8; V6M) (protein, full-length gene in pET21b (NdeI/EcoRI), E. coli BL21(DE3) pLysS; no tag stated; heat treatment and Butyl column; 38 kDa on SDS-PAGE) MQKKELLSTPVVPIDIKAFDAGPILEAMGKTAFQARNLHRAAEIYLRMLEDDCAVILTLAGSLVSAGQGLIVHDLIRKGLVDVIVATGANIVDQDFFEALGHRHYQGDPRADDEALRRLWIDRIYDTYIDEEELRHTDYTVAEIADGLEPRPYSSREFIWHMGRYLAERGLGEKSIVRAAYEEGVPIFVPAFSDSSAGFGLVYHQVKRPEAHVTIDSVADFRELTEIKLKAGTTGLVMLGGGVPKNFAQDIVVAAEVLGHRVEMHKYAIQITVADERDGGLSGSTLSEAQSWGKVDARLSQMVFAEATLAFPLLASYVWHRAPARAKRRYAELFREKAPA | 95 ± 6 µM | – | – | – | –
TtSpeBap (aminopropylagmatine ureohydrolase) (Thermus thermophilus HB8) (protein) MRLVFGEKDTPYEEARVVVLPVPYDLSLSFLPGARRGPEAILLASRELEPFLLELGAAPEEVGIHAAEPVPWVAGMAEESHRLIREEALRHLRAGKWVVALGGDHSVTHPLVQAHREALGDFSLLHVDAHADLYPEWQGSVYSHASPFYRLLTEGFPLVQVGIRAMDRDSLRLARKKGVALFPAHRIHREGLPLDEILRALGKRVYISLDFDALDPSLMPSVGTPLPGGLSYRQVVDLLEAVFREKEVVGMDFVELSPNGQFHAEMTAAQLVYHAIGLKGLQAGWLSREVDHI | – | 3840 ± 840 µM | 2920 µmol/min/mg | 1580 ± 230 s⁻¹ | 419000 ± 32000 M⁻¹ s⁻¹
